This is an account of results in patent publication US20240425885.

What all share (assay): cleavage_in_vitro
Data set [1] has as its system T1, OMNI-135 (metagenomic, unknown).
T1 sequence: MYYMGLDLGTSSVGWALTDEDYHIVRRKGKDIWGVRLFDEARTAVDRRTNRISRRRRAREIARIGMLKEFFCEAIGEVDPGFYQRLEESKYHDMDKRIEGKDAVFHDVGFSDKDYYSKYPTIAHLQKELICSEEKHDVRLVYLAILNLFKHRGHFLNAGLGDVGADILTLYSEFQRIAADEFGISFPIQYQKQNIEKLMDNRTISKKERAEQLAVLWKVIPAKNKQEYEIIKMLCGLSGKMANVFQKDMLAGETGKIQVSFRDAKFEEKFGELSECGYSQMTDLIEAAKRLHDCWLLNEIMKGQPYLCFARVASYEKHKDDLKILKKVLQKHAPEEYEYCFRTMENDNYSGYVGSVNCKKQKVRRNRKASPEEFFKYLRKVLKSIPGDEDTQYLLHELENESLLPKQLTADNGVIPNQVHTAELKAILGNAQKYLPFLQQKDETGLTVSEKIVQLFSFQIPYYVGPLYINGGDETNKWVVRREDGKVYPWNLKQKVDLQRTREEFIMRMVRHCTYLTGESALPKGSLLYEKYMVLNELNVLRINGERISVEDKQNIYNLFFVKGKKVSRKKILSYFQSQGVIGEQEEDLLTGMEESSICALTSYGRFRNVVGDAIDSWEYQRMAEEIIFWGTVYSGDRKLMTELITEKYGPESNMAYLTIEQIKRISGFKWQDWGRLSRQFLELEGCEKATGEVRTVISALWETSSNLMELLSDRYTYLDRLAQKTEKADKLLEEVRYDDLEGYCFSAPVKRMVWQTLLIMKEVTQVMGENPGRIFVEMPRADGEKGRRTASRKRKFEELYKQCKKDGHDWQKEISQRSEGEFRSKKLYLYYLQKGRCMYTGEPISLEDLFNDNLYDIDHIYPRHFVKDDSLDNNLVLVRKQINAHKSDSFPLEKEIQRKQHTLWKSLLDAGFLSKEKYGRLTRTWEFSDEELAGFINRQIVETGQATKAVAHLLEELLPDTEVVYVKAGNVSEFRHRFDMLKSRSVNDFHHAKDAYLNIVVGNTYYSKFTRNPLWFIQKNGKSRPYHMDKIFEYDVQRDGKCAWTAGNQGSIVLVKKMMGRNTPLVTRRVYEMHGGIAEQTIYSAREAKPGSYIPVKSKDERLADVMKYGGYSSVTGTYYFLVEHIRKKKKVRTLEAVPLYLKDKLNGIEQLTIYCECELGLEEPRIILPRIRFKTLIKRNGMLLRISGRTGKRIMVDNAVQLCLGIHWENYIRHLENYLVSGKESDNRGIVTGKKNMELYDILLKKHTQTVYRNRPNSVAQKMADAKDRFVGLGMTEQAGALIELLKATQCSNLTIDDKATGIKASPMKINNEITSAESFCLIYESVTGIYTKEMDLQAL
The settings on record: TXTL; PAM NNWACCNN

The subject of data set [2] is T2, OMNI-92 (metagenomic, unknown).
T2 sequence: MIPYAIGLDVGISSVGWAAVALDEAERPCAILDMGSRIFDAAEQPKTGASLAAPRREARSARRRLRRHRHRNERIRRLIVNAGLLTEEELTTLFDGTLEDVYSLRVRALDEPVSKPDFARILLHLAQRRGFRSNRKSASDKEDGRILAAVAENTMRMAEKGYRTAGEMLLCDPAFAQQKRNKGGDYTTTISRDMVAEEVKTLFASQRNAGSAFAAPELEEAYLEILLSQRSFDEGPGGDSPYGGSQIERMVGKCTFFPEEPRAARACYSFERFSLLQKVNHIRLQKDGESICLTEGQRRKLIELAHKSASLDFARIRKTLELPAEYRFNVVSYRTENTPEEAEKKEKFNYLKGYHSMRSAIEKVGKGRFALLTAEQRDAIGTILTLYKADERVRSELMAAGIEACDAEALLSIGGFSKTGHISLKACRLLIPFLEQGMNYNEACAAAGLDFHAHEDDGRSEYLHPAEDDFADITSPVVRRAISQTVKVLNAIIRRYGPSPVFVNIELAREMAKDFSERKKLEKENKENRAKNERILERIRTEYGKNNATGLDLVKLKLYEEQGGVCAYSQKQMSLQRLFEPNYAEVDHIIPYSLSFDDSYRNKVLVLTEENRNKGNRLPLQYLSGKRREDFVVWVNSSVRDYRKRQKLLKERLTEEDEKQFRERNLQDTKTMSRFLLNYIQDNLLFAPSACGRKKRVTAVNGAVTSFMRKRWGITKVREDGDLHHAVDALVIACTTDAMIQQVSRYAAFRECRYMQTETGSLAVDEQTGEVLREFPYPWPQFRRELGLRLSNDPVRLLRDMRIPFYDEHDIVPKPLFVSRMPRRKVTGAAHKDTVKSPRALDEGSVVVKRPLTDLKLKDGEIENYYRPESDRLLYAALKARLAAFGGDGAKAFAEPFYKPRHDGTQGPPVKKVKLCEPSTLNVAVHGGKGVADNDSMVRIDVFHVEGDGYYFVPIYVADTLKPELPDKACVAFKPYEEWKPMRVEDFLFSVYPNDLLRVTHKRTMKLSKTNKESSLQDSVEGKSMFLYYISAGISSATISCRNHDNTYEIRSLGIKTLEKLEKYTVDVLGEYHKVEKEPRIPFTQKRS
The settings on record: TXTL; PAM NNNNRYGA

Data set [3] deals with T3, OMNI-136 (metagenomic, unknown).
T3 sequence: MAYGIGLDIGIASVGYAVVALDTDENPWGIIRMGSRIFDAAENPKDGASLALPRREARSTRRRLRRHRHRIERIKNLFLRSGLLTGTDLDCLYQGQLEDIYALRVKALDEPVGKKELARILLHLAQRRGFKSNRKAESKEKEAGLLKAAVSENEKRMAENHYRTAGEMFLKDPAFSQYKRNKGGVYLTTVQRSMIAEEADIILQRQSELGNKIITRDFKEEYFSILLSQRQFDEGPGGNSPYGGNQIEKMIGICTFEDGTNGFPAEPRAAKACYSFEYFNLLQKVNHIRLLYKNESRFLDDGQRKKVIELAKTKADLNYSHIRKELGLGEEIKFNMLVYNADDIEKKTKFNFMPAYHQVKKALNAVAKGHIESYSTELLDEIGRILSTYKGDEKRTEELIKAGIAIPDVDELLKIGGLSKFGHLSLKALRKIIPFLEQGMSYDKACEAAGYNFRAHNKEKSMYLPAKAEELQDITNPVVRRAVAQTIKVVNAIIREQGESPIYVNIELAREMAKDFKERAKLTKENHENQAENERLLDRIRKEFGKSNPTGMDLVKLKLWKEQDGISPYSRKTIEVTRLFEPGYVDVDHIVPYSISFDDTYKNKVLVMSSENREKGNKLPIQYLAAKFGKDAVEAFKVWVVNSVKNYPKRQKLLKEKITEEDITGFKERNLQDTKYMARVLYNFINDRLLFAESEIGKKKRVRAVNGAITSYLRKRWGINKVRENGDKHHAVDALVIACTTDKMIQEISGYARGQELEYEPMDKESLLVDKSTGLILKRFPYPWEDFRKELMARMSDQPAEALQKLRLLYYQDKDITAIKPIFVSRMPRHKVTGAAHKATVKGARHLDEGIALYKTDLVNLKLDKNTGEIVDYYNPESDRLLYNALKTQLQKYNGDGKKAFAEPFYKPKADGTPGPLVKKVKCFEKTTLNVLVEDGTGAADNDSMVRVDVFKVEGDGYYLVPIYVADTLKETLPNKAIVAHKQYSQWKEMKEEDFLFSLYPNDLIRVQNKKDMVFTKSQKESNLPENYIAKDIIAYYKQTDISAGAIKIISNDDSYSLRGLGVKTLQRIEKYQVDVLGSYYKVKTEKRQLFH
The settings on record: TXTL; PAM NNDRCNAA

Data set [4] relates to T4, OMNI-133 (metagenomic, unknown).
T4 sequence: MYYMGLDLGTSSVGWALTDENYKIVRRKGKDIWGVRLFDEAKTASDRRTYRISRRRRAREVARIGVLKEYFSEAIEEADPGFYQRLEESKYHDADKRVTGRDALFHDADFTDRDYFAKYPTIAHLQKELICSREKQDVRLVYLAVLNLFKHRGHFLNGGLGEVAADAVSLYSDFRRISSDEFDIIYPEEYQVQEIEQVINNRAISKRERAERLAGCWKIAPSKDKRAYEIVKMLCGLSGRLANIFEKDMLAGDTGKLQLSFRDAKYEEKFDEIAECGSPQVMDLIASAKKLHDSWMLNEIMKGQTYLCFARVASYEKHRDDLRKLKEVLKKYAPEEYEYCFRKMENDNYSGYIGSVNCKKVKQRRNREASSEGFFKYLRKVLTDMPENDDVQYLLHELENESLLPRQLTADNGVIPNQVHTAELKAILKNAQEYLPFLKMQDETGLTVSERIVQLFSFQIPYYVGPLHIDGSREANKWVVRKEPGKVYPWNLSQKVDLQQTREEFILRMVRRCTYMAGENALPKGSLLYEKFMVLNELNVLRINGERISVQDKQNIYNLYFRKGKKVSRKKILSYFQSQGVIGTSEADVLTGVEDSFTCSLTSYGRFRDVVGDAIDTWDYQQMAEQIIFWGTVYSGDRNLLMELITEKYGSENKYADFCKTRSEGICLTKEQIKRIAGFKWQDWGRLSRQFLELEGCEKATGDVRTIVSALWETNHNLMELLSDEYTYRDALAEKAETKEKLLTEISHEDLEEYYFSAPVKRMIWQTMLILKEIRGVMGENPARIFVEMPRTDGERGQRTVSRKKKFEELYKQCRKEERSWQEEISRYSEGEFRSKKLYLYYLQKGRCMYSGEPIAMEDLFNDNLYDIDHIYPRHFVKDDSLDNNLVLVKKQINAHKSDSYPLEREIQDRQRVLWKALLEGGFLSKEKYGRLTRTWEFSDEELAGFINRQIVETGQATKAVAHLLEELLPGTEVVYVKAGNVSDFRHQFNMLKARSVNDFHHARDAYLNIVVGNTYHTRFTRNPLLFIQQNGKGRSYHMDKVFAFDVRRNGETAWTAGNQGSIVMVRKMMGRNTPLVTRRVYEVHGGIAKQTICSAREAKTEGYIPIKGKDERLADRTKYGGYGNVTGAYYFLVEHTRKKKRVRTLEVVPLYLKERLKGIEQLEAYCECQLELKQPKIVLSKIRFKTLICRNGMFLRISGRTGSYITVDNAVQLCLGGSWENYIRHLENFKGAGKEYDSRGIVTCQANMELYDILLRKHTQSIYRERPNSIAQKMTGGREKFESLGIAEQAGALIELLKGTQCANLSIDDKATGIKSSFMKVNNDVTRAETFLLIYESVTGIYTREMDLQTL
The settings on record: TXTL; PAM NNTAMCNN

“GGAAGAGCAGAGCCUUGGUCUCGUUUGAGAACCUUGUAAGAAAUUACAAGGUGAGUGCAAAUAAGGAUUUUUCCGAAAUCACUCCUCAUGGAUGUCCGCAUUGUGCGGUGAAAAAGACUCUGUUUAGAGUCUUUUUU / GGAAGAGCAGAGCCTTGGTCTCNNNNNNNN / NNNNNNNNGAGACCAAGGCTCTGCTCTTCC [T2 sgRNA 35 V1 ; T2 protospacer + 8N PAM library (pbPOS T2)]” showed an activity (1-depletion score) in data set [1] of 0.95.
For the sequence “GGAAGAGCAGAGCCUUGGUCUCGUUGUAGUUCCCUGAUCGUGAAAACGAUCAGGUUGCUACAAUAAGGUAGUACACCGAAGAGCUCUAACGCCCCGUUUUGCGGGGCGUUAUCUCUUUUUUU / GGAAGAGCAGAGCCTTGGTCTCNNNNNNNN / NNNNNNNNGAGACCAAGGCTCTGCTCTTCC [T2 sgRNA 3 V1 ; T2 protospacer + 8N PAM library (pbPOS T2)]”, the activity (1-depletion score) in data set [2] turned out to be 0.97.
In turn, “GGAAGAGCAGAGCCUUGGUCUCGUUGUAGUUCCCUGUUAAUGAAAAUUUUCGGGUUACUAUGAUAAGGUAGAACACCGAAAAGCUCUAACGCCUUGCCAUUUGGUGAGGCGUUAUCUUUUUU / GGAAGAGCAGAGCCTTGGTCTCNNNNNNNN / NNNNNNNNGAGACCAAGGCTCTGCTCTTCC [T2 sgRNA 36 V1 ; T2 protospacer + 8N PAM library (pbPOS T2)]” displayed an activity (1-depletion score) in data set [3] of 0.97.
“GGAAGAGCAGAGCCUUGGUCUCGUUUGAGAACCUUGUAAGAAAUUACAAGGUGAGUGCAAAUAAGGAUUUUUCCGAAAUCACUCCUCAUAAGAGUCCGCAUUGUGCGGUGAAAAGACUCUGCCAAGAGUCUUUUUU / GGAAGAGCAGAGCCTTGGTCTCNNNNNNNN / NNNNNNNNGAGACCAAGGCTCTGCTCTTCC [T2 sgRNA 33 V1 ; T2 protospacer + 8N PAM library (pbPOS T2)]”: the activity (1-depletion score) in data set [4] worked out at 0.95.
